Test results: publication PMC3594340 (Journal of the American Society for Mass Spectrometry, 2013)

Target: the molecule itself
Test: cross-linking

B1: SO_2176 from Shewanella oneidensis (natural protein)
chain: MAIQSKYSNTQVESLIAEILVVLEKHKAPTDLSLMALGNCVTHLLERKVPSESRQAVAEQFAKALAQSVKSN
Q: Does B1 bind?
A: Result: binds
